Where two headings read alike, the source gives them in different places.
Experiments:
[1] = target: PABPC1 full-length (His);Paip2 (Paip2a) full-length (human?;human?, UniProt P11940;Q9BPZ3 1-636;1-127, |); test: EMSA
PABPC1 RRM23 (98-293) = PABPC1 RRM23 (98-293) (UniProt P11940-1 98-293); test: native gel or EMSA
PABPC1 (1-372) = PABPC1 (1-372) (UniProt P11940-1 1-372); test: native gel or EMSA
[2] = target: T1, Poly(A) binding protein cytoplasmic 1 (PABPC1), full-length recombinant, His-tagged (UniProt P11940-1 1-636); test: SEC-MALS
T1 sequence (P11940 whole entry): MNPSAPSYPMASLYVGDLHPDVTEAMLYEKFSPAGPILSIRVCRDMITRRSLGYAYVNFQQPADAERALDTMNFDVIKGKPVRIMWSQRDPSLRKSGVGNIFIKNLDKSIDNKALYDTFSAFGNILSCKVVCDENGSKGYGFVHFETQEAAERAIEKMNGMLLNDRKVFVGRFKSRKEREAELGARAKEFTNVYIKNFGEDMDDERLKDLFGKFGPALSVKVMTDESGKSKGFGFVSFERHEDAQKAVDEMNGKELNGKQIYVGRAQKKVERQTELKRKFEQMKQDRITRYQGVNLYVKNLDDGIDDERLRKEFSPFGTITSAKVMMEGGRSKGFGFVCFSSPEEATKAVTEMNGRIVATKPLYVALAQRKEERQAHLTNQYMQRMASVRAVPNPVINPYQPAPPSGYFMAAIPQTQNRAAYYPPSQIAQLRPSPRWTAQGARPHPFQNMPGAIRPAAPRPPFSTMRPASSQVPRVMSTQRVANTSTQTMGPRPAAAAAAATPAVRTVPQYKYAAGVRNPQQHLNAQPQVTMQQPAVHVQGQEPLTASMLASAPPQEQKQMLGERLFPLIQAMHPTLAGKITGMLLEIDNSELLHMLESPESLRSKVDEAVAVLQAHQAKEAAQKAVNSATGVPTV

[3] = target: T1, Poly(A) binding protein cytoplasmic 1 …; test: SEC-MALS; remark: listed apart in the source

Sequence of PABPC1 full-length (His);Paip2 (Paip2a) full-length (P11940 whole entry, one chain of several): as the sequence (P11940 whole entry) above
Sequence of PABPC1 (1-372) (P11940 1-372): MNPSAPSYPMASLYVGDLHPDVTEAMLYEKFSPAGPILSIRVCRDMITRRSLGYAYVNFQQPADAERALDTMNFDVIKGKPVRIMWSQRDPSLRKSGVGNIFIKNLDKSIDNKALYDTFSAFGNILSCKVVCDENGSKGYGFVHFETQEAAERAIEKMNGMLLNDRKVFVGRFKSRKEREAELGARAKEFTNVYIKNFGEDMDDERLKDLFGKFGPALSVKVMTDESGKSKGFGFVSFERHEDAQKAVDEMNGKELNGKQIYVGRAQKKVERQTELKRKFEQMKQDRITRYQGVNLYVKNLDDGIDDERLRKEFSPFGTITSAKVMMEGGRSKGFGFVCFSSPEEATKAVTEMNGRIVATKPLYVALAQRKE
Sequence of PABPC1 RRM23 (98-293) (P11940 98-293): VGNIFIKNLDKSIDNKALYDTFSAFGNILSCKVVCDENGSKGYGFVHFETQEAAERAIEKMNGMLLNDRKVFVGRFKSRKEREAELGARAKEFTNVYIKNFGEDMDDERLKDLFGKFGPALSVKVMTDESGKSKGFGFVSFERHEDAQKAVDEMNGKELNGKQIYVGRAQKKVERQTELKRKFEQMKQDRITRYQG

B1: r(A)25 (ssRNA)
RNA: AAAAAAAAAAAAAAAAAAAAAAAAA
B1: binds [1].

B2: Paip2 (22-75) (domain or fragment, UniProt Q9BPZ3 22-75, looked up)
chain: GHSHEDDNPFAEYMWMENEEEFNRQIEEELWEEEFIERCFQEMLEEEEEHEWFI
B2: binds (PABPC1 RRM23 (98-293)); binds (PABPC1 (1-372)).

B3: PABPC1-interacting protein 2 (Paip2), full-length recombinant (natural protein, UniProt Q9BPZ3 1-127, looked up)
chain: MKDPSRSSTSPSIINEDVIINGHSHEDDNPFAEYMWMENEEEFNRQIEEELWEEEFIERCFQEMLEEEEEHEWFIPARDLPQTMDQIQDQFNDLVISDGSSLEDLVVKSNLNPNAKEFVPGVKYGNI
B3 was tested, and the “stoichiometry N” value [2] was 1 Paip2 per PABPC1 and the “stoichiometry N” value [3] was 2 Paip2 per PABPC1.
